Results published in patent US9732101B2, “Bioreversible boronates for delivery of molecules into cells” (WISCONSIN ALUMNI RESEARCH FOUNDATION, priority 2012, dated 2017).
Like-named read-outs stand apart in the source and are kept apart here.

Columns and labels:
[1] = Fluorescence polarization assay of binding to GD3 ganglioside-labeled liposomes; parameters: species or system bovine; details: for affinity for GD3 ganglioside relative to binding of a single benzoboroxole to Neu5Ac: compared with Ka of Table 1
Description: Liposomes were formed by transferring DOPC (dissolved in chloroform solution) and GD3 gangliosides (dissolved in 63:35:5 chloroform/methanol/water) to glass tubes and drying them under Ar (g) and then under vacuum. Lipids were re-suspended in 25 mM HEPES buffer, pH 7.0, containing NaCl (75 mM). The solution of lipids was mixed by vortexing for 2 min, and incubated at 37° C. for 1 h. For DOPC liposomes, DOPC was resuspended at a concentration of 5 mM. For GD3 ganglioside-labeled liposomes, DOPC and GD3 gangliosides were mixed at 3 mM and 2 mM concentrations, respectively. Large unilammelar vesicles were formed by extrusion through a 0.1-μm polycarbonate filter from Whatman (GE Healthcare, Piscataway, N.J.). This process produces a population of vesicles of near uniform size (˜100-150 nm diameter as measured by dynamic light scattering). A portion of the DOPC lipids before extrusion were aliquoted as a control.
Fluorescence polarization assays were performed using 50 nM BODIPY FL-labeled unmodified and benzoboroxole-boronated RNase A in black NBS 96-well plates (Corning Costar, Lowell, Mass.). These ribonucleases were incubated with DOPC liposomes (625 μM total lipid) or GD3 ganglioside-labeled liposomes (375 μM DOPC, 250 μM GD3 ganglioside=625 μM total lipid) in 25 mM HEPES buffer, pH 7.0, containing NaCl (75 mM) in the absence or presence of fructose (10 mM). In control wells, ribonucleases were incubated with non-extruded DOPC lipids. Fluorescence polarization at 470/535 nm with a G-factor of 1.257 was recorded after shaking the plate briefly and incubating at ambient temperature for 1 h. Control well polarization was subtracted from experimental well polarization for each ribonuclease. The assay was performed in triplicate.
The affinity of benzoboroxole-boronated RNase A for GD3 ganglioside-labeled liposomes was assessed by using serially diluted liposomes. GD3 ganglioside-labeled liposomes were serially diluted in 25 mM HEPES, pH 7.0, containing 75 mM with dilutions of 62.5 nM-1250 μM total lipid. […] Control DOPC liposomes (with no GD3 ganglioside) were likewise diluted in the same buffer, producing solutions of 62.5 nM-1250 μM total lipid. Liposomes were then incubated with 50 nM BODIPY FL-labeled benzoboroxole-boronated RNase A in the same buffer in a black NBS 96-well plate. Fluorescence polarization was recorded after shaking the plate briefly and incubating at ambient temperature for 35 min. Fluorescence polarization from GD3 ganglioside-labeled liposomes was subtracted from that from DOPC-only liposomes, thereby correcting for binding to DOPC and for changes in solution viscosity. The assay was performed in duplicate. The fraction of labeled ribonuclease bound for each sample well was calculated by dividing its polarization from the polarization of ribonucleases incubated with the highest concentration of GD3 ganglioside (set at 100% bound). The value of Kd was calculated by plotting the fraction bound against the concentration of GD3 ganglioside (see FIG. 21) and fitting the data to a binding isotherm as described in ref. [46] to give Kd=(54±11) μM.

[2] = Heparin-affinity assay (retention on immobilized heparin column); assay type: binding; details: for retention on column of heparin in presence of fructose: 0.10 M fructose in elution buffer
Description: To assess the affinity of boronated proteins for oligosaccharides the retention of boronated proteins compared to unmodified protein can be measured on a heparin column.
For example, the affinity of unmodified and benzoboroxole-boronated RNase A for heparin was assessed by retention on a 1.0-mL HiTrap Heparin HP column (GE Healthcare, Piscataway, N.J.). Unmodified and benzoboroxole-boronated RNase A were mixed in a 1:1 ratio (2.0 mg each) in DPBS, and the resulting solution was loaded onto the column. The column was washed with 5 mL of PBS, followed by elution with 45 mL of a linear gradient of NaCl (0.0-1.0 M) in PBS. Elution was monitored by absorbance at 280 nm, and eluted proteins were identified by mass spectrometry. FIG. 2 illustrates an elution profile of a mixture of unmodified RNase A and benzoboroxole-boronated RNase A from a column of immobilized heparin (solid lines). A small amount of unmodified RNase A was apparent in peak B (FIG. 2). It is currently believed that benzoboroxole-boronated RNase A was able to complex to a small amount of unmodified RNase A and extend its elution time. The same assay was then repeated with 100 mM fructose in both buffers (FIG. 2, dashed line). To make fructose-supplemented buffers, fructose (18 g, 100 mmol) was added to 100 mL of a 10× stock solution of PBS, either no additional NaCl or NaCl (58.4 g, 1.00 mol) was added, and both buffers were diluted to a final volume of 1 L and adjusted to pH 7.4.

6-FAM-dArUdAdA-6-TAMRA = test: Ribonucleolytic activity assay; assay type: biochemical; details: relative to unmodified RNase A; 0.10 M MES-NaOH buffer, pH 6.0, NaCl 0.10 M
Description: Assays were carried out at ambient temperature in 2 mL of 0.10 M MES-NaOH buffer, pH 6.0, containing NaCl (0.10 M). Fluorescence data were fitted to the equation: kcat/KM=(ΔI/Δt)/(If−I0)[E], in which ΔI/Δt is the initial reaction velocity, I0 is the fluorescence intensity before addition of ribonuclease, If is the fluorescence intensity after complete substrate hydrolysis, and [E] is the total ribonuclease concentration. The assay was performed in triplicate.

K-562 cells = test: Cell-proliferation assay, [methyl-3H]thymidine incorporation; assay type: cell-based, human
Description: The effect of unmodified and boronated RNase A on the proliferation of K-562 cells was assayed as described in For assays, 5 μL of a solution of the ribonuclease or PBS (control) was added to 95 μL of cells (5.0×10^4 cells/mL). For co-treatment assays with fructose, ribonucleases were first serially diluted at 2× concentration, followed by addition of an equal volume of 2 M fructose in PBS to each ribonuclease dilution, resulting in a 1× ribonuclease dilution as before but now containing 1 M fructose. Then, 5 μL of each dilution was added to cells as above, including a control of PBS containing 1 M fructose. Because 5 μL of samples were added to 95 μL of cells, the final concentration of fructose in each well was 50 mM.
After a 44-h incubation, K-562 cells were treated with [methyl-^3H]thymidine for 4 h, and the incorporation of radioactive thymidine into cellular DNA was quantitated by liquid scintillation counting. The results are shown as the percentage of [methyl-^3H]thymidine incorporated relative to control cells treated with PBS in FIG. 5. […] Values for IC50 were calculated by fitting the curves by nonlinear regression to the equation: y=100%/(1+10^(log(IC^50^)-log [ribonuclease])h), in which y is the total DNA synthesis following the [methyl-^3H]thymidine pulse and h is the slope of the curve.

- Kd ([1]; BODIPY FL-labeled protein 50 nM, 25 mM HEPES buffer, pH 7.0, NaCl 75 mM): 54 ± 11 µM
- affinity for GD3 ganglioside relative to binding of a single benzoboroxole to Neu5Ac ([1]; listed as benzoboroxole-boronated protein): ~430 fold
- affinity for GD3 ganglioside relative to binding of a single benzoboroxole to Neu5Ac ([1]; listed as boronated protein): ~440 fold
- effect of boronation on affinity for the ganglioside ([1]; fluorescence polarization, absence of fructose, versus unmodified RNase A): increased the affinity
- effect of fructose on the increased affinity for the ganglioside ([1]; fluorescence polarization, fructose 10 mM): abrogated
- IC50 (K-562 cells; [methyl-3H]thymidine incorporation, 44-h incubation, read-out: IC50, inhibition of K-562 cell proliferation): 4 ± 0.3 µM
- IC50 (K-562 cells; fructose 50 mM, read-out: IC50, inhibition of K-562 cell proliferation in the presence of fructose): 9 ± 1 µM
B1: benzoboroxole-boronated RNase A: RNase A with 5-amino-2-hydroxymethylphenylboronic acid conjugated to protein carboxyl groups by carbodiimide condensation (conjugate, UniProt P61823 27-150, looked up)
Ribonuclease pancreatic: KETAAAKFERQHMDSSTSAASSSNYCNQMMKSRNLTKDRCKPVNTFVHESLADVQAVCSQKNVACKNGQTNCYQSYSTMSITDCRETGSSKYPNCAYKTTQANKHIIVACEGNPYVPVHFDASV
modifications: benzoboroxole conjugated to carboxyl groups
notes: RNase A with 5-amino-2-hydroxymethylphenylboronic acid conjugated to protein carboxyl groups by carbodiimide condensation
- retention on column of heparin in presence of fructose [2]: diminishing retention
- retention on column of heparin in presence of fructose ([2]; listed as boronated RNAse A): diminished the retention
- retention on column of heparin ([2]; versus unmodified RNase A, NaCl gradient in PBS): retained longer
- ribonucleolytic activity retained (6-FAM-dArUdAdA-6-TAMRA): 17±2%
